Key:
human FSH (human) = human FSH (human) (UniProt P01215); assay: photoaffinity labeling, SDS-PAGE autoradiograph
[1] = molecular target: LHR L^576A mutant (human) (UniProt P22888); assay: 125I-hCG displacement / Scatchard; conditions: ligand
[2] = molecular target: LHR K^573A mutant (human) (UniProt P22888); assay: 125I-hCG displacement / Scatchard; conditions: ligand
LHR^K583A (human) [3] = molecular target: LHR^K583A (human) (UniProt P22888); assay: 125I-hCG displacement / Scatchard; conditions: ligand
[4] = molecular target: LHR N^581A mutant (human) (UniProt P22888); assay: 125I-hCG displacement / Scatchard; conditions: ligand
[5] = molecular target: LHR I^577A mutant (human) (UniProt P22888); assay: 125I-hCG displacement / Scatchard; conditions: ligand
[6] = molecular target: LHR V^579A mutant (human) (UniProt P22888); assay: 125I-hCG displacement / Scatchard; conditions: ligand
LHR^V574A (human) [7] = molecular target: LHR^V574A (human) (UniProt P22888); assay: 125I-hCG displacement / Scatchard; conditions: ligand
[8] = molecular target: LHR T^578A mutant (human) (UniProt P22888); assay: 125I-hCG displacement / Scatchard; conditions: ligand
[9] = molecular target: LHR T^580A mutant (human) (UniProt P22888); assay: 125I-hCG displacement / Scatchard; conditions: ligand
LHR^S582A (human) [10] = molecular target: LHR^S582A (human) (UniProt P22888); assay: 125I-hCG displacement / Scatchard; conditions: ligand
[11] = molecular target: LHR P^575A mutant (human) (UniProt P22888); assay: 125I-hCG displacement / Scatchard; conditions: ligand
LHR^V574A (human) [12] = molecular target: LHR^V574A (human) (UniProt P22888); assay: cell-based or functional assay
LHR^S582A (human) [13] = molecular target: LHR^S582A (human) (UniProt P22888); assay: cell-based or functional assay
LHR^K583A (human) [14] = molecular target: LHR^K583A (human) (UniProt P22888); assay: 125I-hCG competition binding on HEK293 cells, Scatchard

LHR^S582A (human), sequence (P22888 27-699, stated change not applied): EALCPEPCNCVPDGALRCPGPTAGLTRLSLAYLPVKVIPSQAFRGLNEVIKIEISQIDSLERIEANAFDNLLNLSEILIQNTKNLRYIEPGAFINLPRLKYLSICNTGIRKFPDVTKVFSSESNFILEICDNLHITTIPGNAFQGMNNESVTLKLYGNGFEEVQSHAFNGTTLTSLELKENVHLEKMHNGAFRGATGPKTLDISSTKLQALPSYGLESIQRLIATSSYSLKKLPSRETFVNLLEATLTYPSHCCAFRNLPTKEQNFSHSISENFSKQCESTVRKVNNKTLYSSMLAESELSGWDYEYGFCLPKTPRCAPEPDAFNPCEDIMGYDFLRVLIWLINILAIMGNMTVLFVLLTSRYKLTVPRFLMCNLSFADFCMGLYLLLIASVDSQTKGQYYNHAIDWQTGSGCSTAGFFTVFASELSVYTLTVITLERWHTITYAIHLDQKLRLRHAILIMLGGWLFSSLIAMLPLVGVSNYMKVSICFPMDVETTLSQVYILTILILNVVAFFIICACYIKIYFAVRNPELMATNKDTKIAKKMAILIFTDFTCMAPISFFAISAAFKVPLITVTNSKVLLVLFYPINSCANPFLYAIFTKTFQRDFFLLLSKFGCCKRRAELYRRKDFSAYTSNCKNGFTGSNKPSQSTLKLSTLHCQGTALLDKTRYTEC
LHR^V574A (human), sequence (P22888 27-699, stated change not applied): as above
LHR^K583A (human), sequence (P22888 27-699, stated change not applied): as above
LHR P^575A mutant (human), sequence (P22888 27-699, stated change not applied): as above
LHR V^579A mutant (human), sequence (P22888 27-699, stated change not applied): as above
LHR L^576A mutant (human), sequence (P22888 27-699, change not shown): as the sequence (P22888 27-699, stated change not applied) above
LHR I^577A mutant (human), sequence (P22888 27-699, change not shown): as the sequence (P22888 27-699, stated change not applied) above
LHR N^581A mutant (human), sequence (P22888 27-699, change not shown): as the sequence (P22888 27-699, stated change not applied) above
LHR K^573A mutant (human), sequence (P22888 27-699, stated change not applied): as above
LHR T^578A mutant (human), sequence (P22888 27-699, change not shown): as the sequence (P22888 27-699, stated change not applied) above
LHR T^580A mutant (human), sequence (P22888 other isoform, or with tags, fused parts or gaps mutant): as the sequence (P22888 27-699, stated change not applied) above, with T576A counted along it

^125I-FSHR^9-40F13Bpa (peptide)
percent of FSH labeled (human FSH (human)): > 50%

hCG (from UniProt P01215 25-116; P0DN86 21-165)
Kd [1]: 0.43 nM | Kd [2]: 0.348 nM | Kd (LHR^K583A (human) [3]): 0.195 nM | Kd [4]: 0.35 nM | Kd [5]: 0.746 nM | Kd [6]: 0.985 nM | Kd (LHR^V574A (human) [7]): 0.24 nM | Kd [8]: 0.299 nM | Kd [9]: 0.623 nM | Kd (LHR^S582A (human) [10]): 0.942 nM | Kd [11]: 0.277 nM

hCG (from UniProt P01215 25-116; P0DN86 21-165) (ligand)
IP1 (cpm) (LHR^V574A (human) [12]): 2110 cpm | IP1 maximum level, mutant/wild type (LHR^V574A (human) [12]): 0.15 | IP2 (cpm) (LHR^V574A (human) [12]): 180 cpm | IP2 maximum level, mutant/wild type (LHR^V574A (human) [12]): 0.25 | IP3 (cpm) (LHR^V574A (human) [12]): 80 cpm | IP3 maximum level, mutant/wild type (LHR^V574A (human) [12]): 0.39 | IPt (cpm) (LHR^V574A (human) [12]): 2230 cpm | IPt maximum level, mutant/wild type (LHR^V574A (human) [12]): 0.15 | IP1 (cpm) (LHR^S582A (human) [13]): 15100 cpm | IP1 maximum level, mutant/wild type (LHR^S582A (human) [13]): 1.09 | IP2 (cpm) (LHR^S582A (human) [13]): 900 cpm | IP2 maximum level, mutant/wild type (LHR^S582A (human) [13]): 1.29 | IP3 (cpm) (LHR^S582A (human) [13]): 386 cpm | IP3 maximum level, mutant/wild type (LHR^S582A (human) [13]): 1.38 | IPt (cpm) (LHR^S582A (human) [13]): 16200 cpm | IPt maximum level, mutant/wild type (LHR^S582A (human) [13]): 1.11 | fold improvement of binding affinity over wild type (LHR^K583A (human) [14]): 2 fold

Source: patent US20050142135A1, “Agents and methods for modulating interactions between gonadotropin hormones and receptors” (University of Kentucky Research Foundation, priority 2003, published 2005)
